Changes are numbered by the printed parent chain. In names and notes the source's numbering stands.

T1: PUF4 RNA-binding domain (Saccharomyces cerevisiae, UniProt P25339 537-888)
T1 sequence: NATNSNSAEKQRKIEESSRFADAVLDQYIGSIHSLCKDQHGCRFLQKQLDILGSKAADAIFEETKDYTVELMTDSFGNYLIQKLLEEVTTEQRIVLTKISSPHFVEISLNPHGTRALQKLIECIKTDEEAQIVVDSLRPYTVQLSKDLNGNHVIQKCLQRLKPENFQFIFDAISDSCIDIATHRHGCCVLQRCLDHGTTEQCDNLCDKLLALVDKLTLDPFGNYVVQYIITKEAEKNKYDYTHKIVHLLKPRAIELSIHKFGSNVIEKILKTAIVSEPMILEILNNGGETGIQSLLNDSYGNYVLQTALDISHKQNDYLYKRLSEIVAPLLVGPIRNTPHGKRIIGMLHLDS

B1: Ie_S4_P5E.1_K5.1_C5.1_H5.1_[+4CCCTT]_A5.1_F5.1_T5.1 (ssRNA)
RNA: UUUGACAACUGAUCGUUCUUUCUUGUACCCUUUUAUUAUUCUUUCUCGAUCAGUUGUCUUU
B2: Ie_S4_P5E.1_K5.1_C5.1_H5.1_A5.1_F5.1_[+9CCTCT]_T5.1 (ssRNA)
RNA: B1 RNA with C28U, C29U, C30A, U33C, U34C, A35U, U36C
B3: Ie_S4_P5E.1_K5.1_C5.1_H5.1_A5.1_F5.1_[+9CTCTC]_T5.1 (ssRNA)
RNA: B1 RNA with C28U, C29U, C30A, U33C, A35C, U37C
B4: Ie_S4_P5E.1_K5.1_C5.1_H5.1_A5.1_F5.1_[+10TCTCT]_T5.1 (ssRNA)
RNA: B1 RNA with C28U, C29U, C30A, U33A, A35C, U37C, A38U
B5: Ie_S4_P5E.1_K5.1_C5.1_H5.1_A5.1_[+7CTCTC]_F5.1_T5.1 (ssRNA)
RNA: B1 RNA with C28U, C29U, C30A, U31C, U33C, A35C
B6: Ie_S4_P5E.1_K5.1_C5.1_H5.1_A5.1_[+5CTCTC]_F5.1_T5.1 (ssRNA)
RNA: B1 RNA with C28U, C30U, U31C, U33C
B7: Ie_S4_P5E.1_K5.1_C5.1_H5.1_A5.1_[+5TCTCT]_F5.1_T5.1 (ssRNA)
RNA: B1 RNA with C28U, C29U, U32C
B8: Ie_S4_P5E.1_K5.1_C5.1_H5.1_A5.1_F5.1_[+8CTCTC]_T5.1 (ssRNA)
RNA: B1 RNA with C28U, C29U, C30A, U32C, U34C, A35U, U36C
B9: Ie_S4_P5E.1_K5.1_C5.1_H5.1_A5.1_[+5CCCTT]_F5.1_T5.1 (ssRNA)
RNA: B1 RNA with C28U, U31C
B10: Ie_S4_P5E.1_K5.1_C5.1_H5.1_A5.1_[+6CTCTC]_F5.1_T5.1 (ssRNA)
RNA: B1 RNA with C28U, C29U, U32C, U34C
B11: Ie_S4_P5E.1_K5.1_C5.1_H5.1_A5.1_[+6C]_F5.1_T5.1 (ssRNA)
RNA: UUUGACAACUGAUCGUUCUUUCUUGUAUUCAUUAUUCUUUCUCGAUCAGUUGUCUUU
B12: Ie_S4_P5E.1_K5.1_C5.1_H5.1_A5.1_F5.1_[+8C]_T5.1 (ssRNA)
RNA: B11 RNA with C30A, A31U, U32C
B13: Ie_S4_P5E.1_K5.1_C5.1_H5.1_A5.1_F5.1_[+8CC]_T5.1 (ssRNA)
RNA: UUUGACAACUGAUCGUUCUUUCUUGUAUUAUCCUAUUCUUUCUCGAUCAGUUGUCUUU
B14: Ie_S4_P5E.1_K5.1_C5.1_H5.1_A5.1_F5.1_[+8CT]_T5.1 (ssRNA)
RNA: B13 RNA with C33U
B15: Ie_S4_P5E.1_K5.1_C5.1_H5.1_A5.1_F5.1_[+10TT]_T5.1 (ssRNA)
RNA: B13 RNA with C32U, C33A, A35U
B16: Ie_S4_P5E.1_K5.1_C5.1_H5.1_A5.1_[+5TTT]_F5.1_T5.1 (ssRNA)
RNA: UUUGACAACUGAUCGUUCUUUCUUGUAUUUUUAUUAUUCUUUCUCGAUCAGUUGUCUUU
B17: Ie_S4_P5E.1_K5.1_C5.1_H5.1_A5.1_F5.1_[+9CTC]_T5.1 (ssRNA)
RNA: B16 RNA with U30A, A33C, U35C
B18: Ie_S4_P5E.1_K5.1_C5.1_H5.1_A5.1_F5.1_[+9CCC]_T5.1 (ssRNA)
RNA: B16 RNA with U30A, A33C, U34C, U35C
B19: Ie_S4_P5E.1_K5.1_C5.1_H5.1_A5.1_[+6TTC]_F5.1_T5.1 (ssRNA)
RNA: B16 RNA with U32C
B20: Ie_S4_P5E.1_K5.1_C5.1_H5.1_A5.1_F5.1_[+10TCC]_T5.1 (ssRNA)
RNA: B16 RNA with U30A, U35C, A36C
B21: Ie_S4_P5E.1_K5.1_C5.1_H5.1_A5.1_[+6CCC]_F5.1_T5.1 (ssRNA)
RNA: B16 RNA with U30C, U31C, U32C
B22: Ie_S4_P5E.1_K5.1_C5.1_H5.1_A5.1_F5.1_[+9CCT]_T5.1 (ssRNA)
RNA: B16 RNA with U30A, A33C, U34C
B23: Ie_S4_P5E.1_K5.1_C5.1_H5.1_A5.1_F5.1_[+8TTC]_T5.1 (ssRNA)
RNA: B16 RNA with U30A, A33U, U34C
B24: Ie_S4_P5E.1_K5.1_C5.1_H5.1_A5.1_[+7CCT]_F5.1_T5.1 (ssRNA)
RNA: B16 RNA with U30A, U31C, U32C, A33U
B25: Ie_S4_P5E.1_K5.1_C5.1_H5.1_A5.1_[+7TCT]_F5.1_T5.1 (ssRNA)
RNA: B16 RNA with U30A, U32C, A33U
B26: Ie_S4_P5E.1_K5.1_C5.1_H5.1_A5.1_[+7TTT]_F5.1_T5.1 (ssRNA)
RNA: B16 RNA with U30A, A33U
B27: Ie_S4_P5E.1_K5.1_C5.1_H5.1_A5.1_[+7CCC]_F5.1_T5.1 (ssRNA)
RNA: B16 RNA with U30A, U31C, U32C, A33C
B28: Ie_S4_P5E.1_K5.1_C5.1_H5.1_A5.1_[+7CTT]_F5.1_T5.1 (ssRNA)
RNA: B16 RNA with U30A, U31C, A33U
B29: Ib_S2_P3E.1_K3.1_C3.1_H3.1_[A4C]_A3.1_[A6G]_F3.1_T3.1 (ssRNA)
RNA: UUUGAUUAAUAUGAUAUCGUUCUUUCUUGUCUGUAUUCUUUCUCGAUAUCAUAUUAAUCUUU
B30: Ib_S2_P3E.1_K3.1_C3.1_H3.1_A3.1_[T5C]_[A6T]_F3.1_T3.1 (ssRNA)
RNA: B29 RNA with C31A, U32C, G33U
B31: Ib_S2_P3E.1_K3.1_C3.1_H3.1_A3.1_[T5A]_[A6C]_F3.1_T3.1 (ssRNA)
RNA: B29 RNA with C31A, U32A, G33C
B32: Ic_S2_P3E.1_K3.1_C3.1_H3.1_A3.1_[T5C]_[A6C]_F3.1_T3.1 (ssRNA)
RNA: B29 RNA with C31A, U32C, G33C
B33: Ib_S2_P3E.1_K3.1_C3.1_H3.1_[A4T]_A3.1_[A6T]_F3.1_T3.1 (ssRNA)
RNA: B29 RNA with C31U, G33U
B34: Ic_S2_P3E.1_K3.1_C3.1_H3.1_A3.1_[T5C]_[A6G]_F3.1_T3.1 (ssRNA)
RNA: B29 RNA with C31A, U32C
B35: Ic_S2_P3E.1_K3.1_C3.1_H3.1_A3.1_[A6C]_F3.1_T3.1 (ssRNA)
RNA: B29 RNA with C31A, G33C
B36: Ic_S2_P3E.1_K3.1_C3.1_H3.1_A3.1_[T5A]_[A6T]_F3.1_T3.1 (ssRNA)
RNA: B29 RNA with C31A, U32A, G33U
B37: Ib_S2_P3E.1_K3.1_C3.1_H3.1_[A4T]_A3.1_[A6C]_F3.1_T3.1 (ssRNA)
RNA: B29 RNA with C31U, G33C
B38: Ib_S2_P3E.1_K3.1_C3.1_H3.1_[A4C]_A3.1_[A6T]_F3.1_T3.1 (ssRNA)
RNA: B29 RNA with G33U
B39: Ic_S2_P3E.1_K3.1_C3.1_H3.1_A3.1_[T5G]_[A6T]_F3.1_T3.1 (ssRNA)
RNA: B29 RNA with C31A, U32G, G33U
B40: Ie_S4_P5E.1_K5.1_C5.1_H5.1_A5.1_[+5CCCT]_F5.1_T5.1 (ssRNA)
RNA: UUUGACAACUGAUCGUUCUUUCUUGUAUCCCUUAUUAUUCUUUCUCGAUCAGUUGUCUUU
B41: Ie_S4_P5E.1_K5.1_C5.1_H5.1_A5.1_[+6TTCC]_F5.1_T5.1 (ssRNA)
RNA: B40 RNA with C29U, C30U, C31U, U32C, U33C
B42: Ie_S4_P5E.1_K5.1_C5.1_H5.1_A5.1_F5.1_[+8TTCC]_T5.1 (ssRNA)
RNA: B40 RNA with C29U, C30A, C31U, A34C, U35C
B43: Ie_S4_P5E.1_K5.1_C5.1_H5.1_A5.1_[+7CTCT]_F5.1_T5.1 (ssRNA)
RNA: B40 RNA with C29U, C30A, U33C, A34U
B44: Ie_S4_P5E.1_K5.1_C5.1_H5.1_A5.1_F5.1_[+9TCTC]_T5.1 (ssRNA)
RNA: B40 RNA with C29U, C30A, C31U, A34C, U36C
B45: Ie_S4_P5E.1_K5.1_C5.1_H5.1_A5.1_F5.1_[+8CTCT]_T5.1 (ssRNA)
RNA: B40 RNA with C29U, C30A, C31U, U32C, A34C
B46: Ie_S4_P5E.1_K5.1_C5.1_H5.1_A5.1_F5.1_[+8TCTC]_T5.1 (ssRNA)
RNA: B40 RNA with C29U, C30A, C31U, U33C, A34U, U35C

The series deals with T1, PUF4 RNA-binding domain. The series is described as follows: Mg; RNA-MaP; 20 mM Na-HEPES pH 7.4, 30 mM KOAc, 0.75 mM MgCl2, 0.1% Tween-20, 5% glycerol, 0.1 mg/mL BSA, 2 mM DTT; 25 C; 0.0125-409.6 nM protein. The following applies: tags: N-His6-TEV cleaved; C-SNAP kept, Cy3B-labelled; label: tethered on chip by stalled RNA polymerase.
The molecule B1 came in with a Kd of 0.00987 µM. B2 showed an equilibrium dissociation constant (Kd) of 0.0178 µM. To B3 belongs 0.025 µM; to B4, 0.00365 µM; to B5, 0.0287 µM.

B6 yielded a Kd of 0.0134 µM. Molecule B7 yielded a Kd of 0.0142 µM. The Kd values of the last two molecules are within 1.5-fold of each other. Consider B8, for which the affinity, expressed as Kd, was 0.0275 µM. To B9 belongs 0.0208 µM; to B10, 0.0436 µM. The figure for B11 is 0.0134 µM; for B12 it is 0.0171 µM; for B13 it is 0.021 µM. The figure for B14 is 0.0161 µM; for B15 it is 0.00252 µM. Regarding B16, binding was put at a Kd of 0.00285 µM. This Kd and that of the molecule before are within 1.5-fold of each other. For B17, the dissociation constant (Kd) was 0.0298 µM. The figure for B18 is 0.0108 µM; for B19 it is 0.032 µM. To B20 belongs 0.00562 µM; to B21, 0.0608 µM.

On to B22, for which the Kd came out at 0.0176 µM. The figure for B23 is 0.0123 µM. B24 gave a Kd of 0.0665 µM.

In turn, B25 registered a dissociation constant (Kd) of 0.0249 µM. In turn, B26 came in with a Kd of 0.0125 µM. The figure for B27 is 0.085 µM; for B28 it is 0.0268 µM.

For B29, binding was put at a Kd of 0.0408 µM. This Kd lies about 1.5-fold higher than the previous one. B30 yielded a Kd of 0.0148 µM. To B31 belongs 0.066 µM. The figure for B32 is 0.0106 µM.

B33 had a Kd of 0.576 µM.

As for B34, the dissociation constant (Kd) was found to be 0.0331 µM. To B35 belongs 0.00848 µM; to B36, 0.0722 µM. To B37 belongs 0.472 µM; to B38, 1.21 µM; to B39, 0.181 µM. To UCUCUUCGUAUAUAUCUCUU (ssRNA) [Ia_S1_P3E.1_K3.1_C3.1_H3.1_[T1C]_A3.1_F3.1_T3.1] belongs 1.18 µM; to B40, 0.016 µM; to B41, 0.0192 µM. As to B42, binding was characterised by a dissociation constant (Kd) of 0.0211 µM. The Kd values of the last two molecules are within 1.5-fold of each other. To B43 belongs 0.0651 µM.

In turn, B44 gave a Kd of 0.018 µM. This Kd lies about 3.6-fold lower than the previous one. The figure for B45 is 0.0278 µM; for B46 it is 0.0201 µM.

Broadly, the Kd is the free concentration of one partner at which half of the binding sites on the other are occupied at equilibrium, for simple one-to-one binding.

(Values after paper PMC9352680, “A comprehensive thermodynamic model for RNA binding by the Saccharomyces cerevisiae Pumilio protein PUF4”.)
